Target: calmodulin (in the CaMKI and calcineurin activity assays)
Assay: cell-based or functional assay

inhibition of CaMKI kinase activity in vitro, IC50: 1.2 µM
inhibition of calcineurin phosphatase activity in vitro, IC50: 1 µM
Substance: phosphorylated DARPP-21
